Assay results published in the DeepSol protein solubility set.

Experiment: soluble on expression in E. coli; label from the status in PepcDB or PDB records

Soluble on expression in E. coli, not soluble:
MGSDKIHHHHHHMTRKFGEIAFTPEVQAAQEERGSRQTYDRYIANGPANDTITPNIAKFIAQLEGFYLGTVSSNGYPYIQFRGGSPGFLKVLDEKTLGFADFSGNLQYITVGNLSSNDKAFLFLMDYRHRQRIKIWGRAEYIEGESSLLEQVRVADYPAQVERAILFHVEATSENCPQHIPVRYSEREVKAMMAPLENRIAELEQQLSEQNSSSKTGKQLPSRD, MGSDKIHHHHHHMTRNGIGIRTAQVRSERLTGQIHVYDGVGKGKSQAALGVVLRSIGLGINAPNNSNRVLLLRFLKGPERDYDEDGAIAALQRGFPHLIDQVRTGRAEFFGPEEITTFDRSEAGRGWDVAKGAIASGLYSVVVLDEINPVLDLGLLSVDEVVGTLKSKPQELEIIATGRGAPQKLLDIADLHSEMKPLHHPKATELLMKGIEIYTGAGKGKSTSALGKALQAIGRGINHPGSTRVLIMQWLKGGSGYTEDAAIAALRQSYPEVVDHQRCGRDAIVWRNSRQELDYVEAERGWEIAKVAIASGLYKTIILDELNPTVDLELLPVEPIVQALLRKPRDTEIIITGRCQNQPAYFDLASIHSEVYCHKHYANQGVELKRGVDF, MGSDKIHHHHHHMTRYRFFHTADIHLGKTYRTSTGEAERYEDFFRMLGSIVSDAIAARVDFVLIAGDLFHTGQILPRTFARTIETLQPLKNAGIPCIAVEGNHDWIHRRDSISWMEALSQMGYIHLLRPSRTETGGYRFSPFDYEQGMGGHIEVNGVNIYGLGYIGTQAGAHVARICEAITTTNNILLFHVGVWTYSPVEIGNMKPEEALPLADVFDYVALGHGHKPYIIATPEGRAYAFNPGSPECVNFGEEKYDKGYYLVTVNDGVYTHEFRPTNPRPMLVTTIDLDGAGDAETALTRFRNVVAAKIASFSDDRQPLLEIKLTGRVGFHPFELGRERLRLALEEICNPLHVEIKNHLSLVTAGGGAESEKKSLAEIEREVLRELISAKSEYKGREDELVRLSLAIRDQVLKGETDGEELLGLLMREPA, MGSDKIHHHHHHMTSADPPTLPETSVDVPPTSAEGLLKLITNEYDGLPRQLKRIASYMSQQSDRIMVDRISDIARECEVHPSAIVRFSQRFGFSGFSEMQTLFREAYTHKTTPVQNYQQRIRSMIVNKSQKASAGDLARECVNATLSGLERLSADLDDEEFEKAVDLVVNADNIYVVGVRRSFAVADYLVYNLQHTNKRIHLISGLGGSYREQMRSVRANDLVIAISFTPYGKETQHCLRIAQHHQAKTLIITDSNLSPLAKRANSVLLVNEGSSFAFRSLSATLCLCQALFIAVAYRLELKVDEIHEQVGFDD, MGSDKIHHHHHHMTSIVFNGSYITKKNTGVGVVSKDLLYSLSANKITTLIPKDLDIKGDIYIPNNLSPGTGLKSHFRRLYWLQNSVPKLMNNLNAEYFLSPLLEAPLFSNIKSIVLAHDLIPIRYPSVSFLTLYYLIYIPLILKQSKLILCNSVSTANDLHRFYKVPMHKLFPIKLGFNNKKYYPIKKIRKKFFLIIGRHNPHKNLRRVIKAFAYSKINDYKLIFVGPFDKRHTPSLLKLIDKHNIRHLCVWKGWIDDDEKLSLLNECHALIIASLWEGFGLPALEAMACGTPVIASDRGALREVMGNYGYFINPFNIQSIACAMNAVINDKKCFENALQEGPSRAESFNWLDTARTIEKIIQEID, MGSDKIHHHHHHMTSPRIISIEGPMGAGKTSLARQLAQSLGGRMILEAPAQNPFLSRFYQGPGAALATELQFFMQRREQWRHRDDSSWLISDHSARKDEIFTPLTLDAEEHHLFNELRMALDFHPAPADLMIFLDAPLAVLMKRIRARGDAYEQALAPDYLARVQAAYRAWQANYALPRMNVDSAQVDFVHDPRHTERLIDAVRHRLKDAEEQDA, MGSDKIHHHHHHMTSPSPDQVIRQEILALSAYHVPPAKDMVKLDAMENPYRLPPFLCEEISRIAADTSINRYPDPHAAALKEVLSTTLSVPAGMEIMLGNGSDEIIQIIMLAAAKPEAKLLTIEPGFAMFKMIATFANMQYIGIPLKPDFSLDIDRMLAAIERHQPSVIFLAYPNNPSGNLFDTSALEKIIEISPGLVVIDEAYHPFAGKSFIGRLADYPNLLVMRTLSKLGLAGLRLGLLAGRPEWLSHLEKLRLPYNVNVITQLVATKIMQHYDVLQQQADAIRQTRTRLRTFLENLNGIEVFPSNANFILFRLDGASQIFRLLQQHGILVKNLDNSHPLLKNCLRVTVGTPEENDRFCNTLQDLIAGN, MGSDKIHHHHHHMTSQYKASRFATPRDMPEQTYRLSNVCLPAPLSMGELETFSAISRQVSPLRKRHTLFEQGEAFRSLYIVRCGSLKQVYRDITREEHVTQFYLPGEVVGLDALSSGFHPGATIALETTSVCEIGPESIEELAHGDRTERGVGGCFLRVMSRAMHQERMMVRLFLNRTSDVRLASFLLALSGRFRQQGYSPFCFRLSMSRSDIGNYLGLAVETVSRLLGRFQHLGLLTAKGREIRIDDLEALAALADGRSRHSIWDTADEAPERLASMSTH, MGSDKIHHHHHHMTSSSRIAVRELPLFPLPEVVLFPTRPLPLHIFEFRYRIMMNTILESDRRFGVLMVDPVKGTIANVGCCAEIIHYQRLPDDRMKMLTLGQQRFRVLEYVREKPYRVGLVEWLEDHPPAKDLRPLATDVEQLLRDVVRLSAKITEQNIEIPEELPDLPTELSYWVASNLYGVAGEQQSLLEMQDTAARLEREAEILTTTRNHLAARSVLKDTFNPKL, MGSDKIHHHHHHMTSSVASDLSSFVRFADIPPEFQPTDAHPIRVRSRLMPSGRRIARHTHAWAQVAYASRGVLRVATTGTTWMVPPSRAIWVPPHVTHEVVAVEDAFLRTLYITESTVPAGLDTPRVVEVSDLLREVIAALDTPGISATREQLLGALALDELTRSEPLPLSVPMPNEKRLRALCEAVIADPTHGESLEQWASSVGASTRTIARLFRQELGVSFSQWRQQAILARAIPLLSQGRPLSHVALELGYQSQSAFSAMFRRAFGESPRAFIERGSEHRVEDGERGDMETDNETAAQDRADVADVADVADDAGDAGDAGDTGDTGDTGDVGDVGDADDSEL, MGSDKIHHHHHHMTTINFLGGCREVGRSAVMVDGIMIDYGVKPSDPPEFPLNGLSPRAVILSHGHLDHIGVAPNLMYYDPEVILTPPSHELSMILLRDSMKIMHPPPFTKRELRQFESNIREVEYEEPITVGDYEVEFFNAGHIPGSASIHMRGDVNILYSGDIRLEETRLLEGANTDYPETDILIVESTYFGTEHPDRKELERAFVESVIDTLDMGGHAIIPAFAVGRTQEVLMILERYGITPYVDGMGKEVAQVIQRHPDFIRSPKELKRAVRNAIPVEWRQRERVLEEPSAVVTTAGMLNGGPAMFYISRLYNDEKSKILLTGYQVEGTNGDMALKTGMLNLGTRVVKLKMGVEQYDFSAHADDRQLKEYVKRVVDRGAEVVFTIHGEETEAFAEWIKDNIGVEAYAPKNGEIYVI, MGSDKIHHHHHHMTTLNSEKVFRDPILGFIHVDDSIILDLINSHEMQRLRRIKHLGVANSVFHGGEQSRFQHSLGVYEISRRMIQALDDNEKFANERHWDHENDLLVQAAALLHDVGHGAYSHTFEHLFDTVHEQFTQKIIVDPSTEVNAILKTVSNDFPERVAAVIGKSYPDKRVVQLISSQLDADRMDYLLRDAYYTGAEYGRYDIERILRLMRPIKDGFAFDIAGVHSIEDYVISRYQMYLQVYFHPVSRGMEVVLENLLIRAQDIFDKDPDNPIFFPIIRPIFALKNKIDIQDYISLDDSVFNTAFNIWQKVDDKILADLSKRFLDRKPLKSIVLNEKTKDLIPSLRKKIKDRGFDPKYYTGENDATDLPYESYSPKTGEEGIKFVYPDGQQVELSKLSPLVEAINGKESIDRRFFFPREMLSNPEINQLYLKYKKTY, MGSDKIHHHHHHMTTPSETSPSRMNSTQAWVSYLSKVELPVLANTLRQINELTDSRNSTVNELANVILNDAQLTSQVLRLSNTVFYNQTRTQVSTVSRAITLIGFDAVKSMAISSLIVDSLLKRNDRPHLLRCLARAIHAAVQARCLMPKRTEHALEEVFIGALLMNIGELAFWSCETEQASELEERLRLEEPPVEAQKAVLHTTFTEITRGLVDAWSLGPFIKEVVAPGKANSMASSLVRNSVEMARVSENGWSGAEMDKVLEKLSDDIGETPAAIRDQLKVNAQEASKVAVSLGIPQVTALLPGNQESVPDAPAMDSDLQLQILRELTQTLAEKPDINEVCQLVIEGIHRAIGMQRVALLMTDRSGELLVPRKVGGRGTEEWREHFVIKKDGTGPLGPLLPHGTCAVYEPRKQTEGVPYDRWLGKVPALAGSLKAKGRLVGLFYADNAAAGYVPSEQQLAAFGHFIQNAQLCLTLMSARG, MGSDKIHHHHHHMTVCIACGSTKVEPFLDLHETTLANKFLAPEEIGAVEPRHPLVVGFCPECSHVQLTHLVPPAAMFEDYLYISSLSKTLVGHLHGLAATVIERFKLGADDLFIDVGCNDGTLLSEAKRRGVRILGIDPAKNLAPLAKKNGVDTLVAFFGTETAAKVVAEHGKASVVTATNVFPHIPVLDDLVKGLDVVLKPGGVFVAEAHYLGDLLDACAFDTVYHEHCSYWSLHAAQYMFQRHGFEVVDIQRLPIHHGQLRLFAMRKGEGQPTAAVATLLAEEVKRGMTGIECYRAFAKRVEAIREELHAAFAGFKAAGKTVVGYGAPAKGNTLLSYIGFGPEQLAYIADKSPLKQGRVTPGTHIPVVGPERLLADQPDYVLLLAWNFADEILVEQAEYRARGGKFILPVPEVKIV, MGSDKIHHHHHHMTVIAVAGKGGTGKTLVSALLINFISEHTTSVLAVDADPDSNLPEALGVEKQVRKTLGEIRELFQVSRDEMGSMNKEQWLEGKIYAEAICECPRYDLLVMGRPEGEGCYCFANSLLRGVLKRLMRHYEYIIIDTEAGLEHFSRKTIDSADYIIIVTDMSRKGLATAKRIKELASELKLNFKKIFLIANRIASEDAEKTIREFAKEEGLELLAVLPYDSSVAEIDLRGEPVSKIDKNSEVYRKMKDVANLMLNLSAKAR, MGSDKIHHHHHHMTVLIKEEDFIQSIADGIQFISYYHPVDYIRHLARAYEREESPAARDAMAQILTNSRMCAEGKRPLCQDTGIVNVFLKVGMNVRFDTQRTLQELCDEGVRRGYLNPDNPLRASVLDDPLFARKNTRDNTPCILHVELVPGDTVDVQVASKGGGSENKSKFVMLNPSDSLVDWVLKTVPTMGAGWCPPGMLGIGVGGTAEKAMLMAKQSLMEDIDMYELLARGPQSKLEELRIELYEKVNALGIGAQGLGGLTTVLDVKISTFPTHAASKPVAMIPNCAATRHAHFVLDGSGPARLDPPSLSEWPEVHWAPDYNKSRQVDLDTLTKEEVASWKPGQTLLLSGKMLTGRDAAHKRIQDMLSKGESLPVDFTNRVIYYVGPVDPVRDEVVGPAGPTTATRMDKFTDMMLAQTGLISMIGKSERGPVAIESIRKHGSAYLMAVGGAAYLVSKAIRNAKVLAFEDLGMEAIYEFDVKDMPVTVAVDSQGTSVHTTGPKEWQARIGKIPVAVA, MGSDKIHHHHHHMTVRQIIQLAGTLDIPGLPQLDVTQDEISIANLTPLKLWAATAGWGASADDLGFEDRVTGNKIPLNGSATSSRLVNAFDGSQALSQGTAGAVLKDDSFSTAGSFTIAMNLCAINDELTCAPASSSVLPGSGQSYWFLASSAGKFRIGTTSLSTQFADYLGPLLSRTAWLRLILKYDRAVGTMTLYVNGVQQAKLTNDALKTLSLAPGLVMGGLVTTTATPTSPPCLMRSPMGFNSALSDSELALVDRYLSKTLY
